Positions count from the first letter of the chain named. Numbers in names are those of the source.

Among the targets are HER2 VHH (2Rs15d) I29D; HER2 VHH (2Rs15d) L102A; HER2 VHH (2Rs15d) L102S.
Holding throughout (experiment): SPR
In assay [1] the target is recombinant human HER2 (AA 23-653) (Homo sapiens, UniProt P04626).

As for “recombinant human HER2 (AA 23-653) (from UniProt P04626 23-653) (domain or fragment)”, the Kd was determined as 3.1 nM with HER2 VHH (2Rs15d) I29D, 3.1 nM with HER2 VHH (2Rs15d) L102A and 3.6 nM with HER2 VHH (2Rs15d) L102S.

B1: HER2 VHH (2Rs15d) Y28K (VHH)
VHH: QVQLQESGGGSVQAGGSLKLTCAASGKIFNSCGMGWYRQSPGRERELVSRISGDGDTWHKESVKGRFTISQDNVKKTLYLQMNSLKPEDTAVYFCAVCYNLETYWGQGTQVTVSS
B1: the binding result in assay [1] is “binds”.

B2: HER2 VHH (2Rs15d) Y28D (VHH)
VHH: B1 VHH with K27D
Consider B2, for which the binding result in assay [1] is listed as “binds”.

B3: HER2 VHH (2Rs15d) S32K (VHH)
VHH: B1 VHH with K27Y, S31K
Regarding B3, the Kd in assay [1] came out at 31 nM.

B4: HER2 VHH (2Rs15d) T58D (VHH)
VHH: B1 VHH with K27Y, T57D
For B4, the binding result in assay [1] is reported as “binds”.

B5: HER2 VHH (2Rs15d) G54A (VHH)
VHH: B1 VHH with K27Y, G53A
Consider B5, for which the binding result in assay [1] is on record as “binds”.

B6: HER2 VHH (2Rs15d) Y28S (VHH)
VHH: B1 VHH with K27S
In the case of B6, the binding result in assay [1] is listed as “binds”.

B7: HER2 VHH (2Rs15d) T58S (VHH)
VHH: B1 VHH with K27Y, T57S
Take B7: the binding result in assay [1] is “binds”.

B8: HER2 VHH (2Rs15d) N101D (VHH)
VHH: B1 VHH with K27Y, N100D
Turning to B8, the binding result in assay [1] was “binds”.

B9: HER2 VHH (2Rs15d) Y28A (VHH)
VHH: B1 VHH with K27A
As for B9, the binding result in assay [1] is “binds”.

B10: HER2 VHH (2Rs15d) T58A (VHH)
VHH: B1 VHH with K27Y, T57A
Consider B10, for which the binding result in assay [1] is reported as “binds”.

B11: HER2 VHH (2Rs15d) D55K (VHH)
VHH: B1 VHH with K27Y, D54K
For B11, the binding result in assay [1] is reported as “binds”.

B12: HER2 VHH (2Rs15d) G54K (VHH)
VHH: B1 VHH with K27Y, G53K
Consider B12, for which, in assay [1], the binding result was “binds”.

B13: HER2 VHH (2Rs15d) G54S (VHH)
VHH: B1 VHH with K27Y, G53S
Regarding B13, the binding result in assay [1] is “binds”.

B14: HER2 VHH (2Rs15d) G54D (VHH)
VHH: B1 VHH with K27Y, G53D
Turning to B14, the binding result in assay [1] is “binds”.

B15: HER2 VHH (2Rs15d) T58K (VHH)
VHH: B1 VHH with K27Y, T57K
For the molecule B15, the binding result in assay [1] is given as “binds”.

(Values after publication doi:10.1101/2025.01.11.632576 (bioRxiv, 2025).)
